Measurements: patent US20110143428A1 (Genentech, published 2011)

Molecular target: T1, hVEGF-C (human, UniProt P49767)
T1 construct: unlabelled; also called human VEGF-C
T1 sequence (VEGF-C, looked up): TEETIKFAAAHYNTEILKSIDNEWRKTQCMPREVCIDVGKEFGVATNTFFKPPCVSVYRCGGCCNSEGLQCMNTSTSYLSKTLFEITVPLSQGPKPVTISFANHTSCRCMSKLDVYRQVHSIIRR
Test: phage competition ELISA: phage-displayed clone incubated with increasing soluble hVEGF-C, unbound phage captured on hVEGF-C coated plate, anti-M13-HRP, OD450

B1: VC1.1 (antibody, V domains shown)
VH: EVQLVESGGGLVQPGGSLRLSCAASGFTFSDSDIHWVRQAPGKGLEWVAWISPYSGYTDYADSVKGRFTISADTSKNTAYLQMNSLRAEDTAVYYCARLFKVIFDYWGQGTLVTVSS
VL: DIQMTQSPSSLSASVGDRVTITCRASQDVSTAVAWYQQKPGKAPKLLIYSASFLYSGVPSRFSGSGSGTDFTLTISSLQPEDFATYYCQQSYTTPPTFGQGTKVEIK
notes: also called clone VC1.1
IC50: 41.5 nM
